This assay concerns the target Aβ1-40 fibrils (Homo sapiens (Human)) (UniProt P05067). Nature of the assay: saturation radioligand binding to Aβ fibrils in PBS, RT 90 min, Centricon 100 kDa filtration.

Square brackets hold non-standard residues; d marks the D form. Ends that are not written are not given here.

Chain of Aβ1-40 fibrils (Homo sapiens (Human)) (P05067 672-711 limits assumed): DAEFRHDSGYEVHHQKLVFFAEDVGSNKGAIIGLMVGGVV

B1: 99mTc-peptide (technetium-99m-labeled BBB permeant Aβ-targeted peptide KKLVFFAεKGC) (peptide)
peptide: [dK][dK][dL][dV][dF][dF][dA]KG[dC]
modifications: not fully specified (residue 8); printed as KKLVFFAεKGC; also: 99mTc chelated by εKGC (N3S core)
Broadly, the Kd is the equilibrium constant for the complex coming apart. Low readings indicate tighter binding, high ones weaker binding. Take B1: the Kd amounted to 352 nM.

Source of the values: patent US20060039859A1.
